Assay [1] concerns HCT116 cells (hMLH1 mutated). Description: Clonogenic assay of mismatch repair defective cells. The format is cell-based, human. The settings on record: similar assays.
Description: These cells were plated into multiwell-microtiter-plates at different concentrations and treated with [sequence] as indicated and stained with GIEMSA-blu. The multiwell-microtiter-plates (for an example see FIG. 13A) were scanned using the VersaDOC® (BioRad) imaging system and growth was automatically quantified with the software package Quantify One® for the analysis of the microtiter-plates (microtiter-plates scanning software).
For the next assay, the system named is U2OS cells. Description: FACS analysis of DNA content / cell cycle distribution. The format is cell-based, human. The settings on record: for cells in G2 phase: control 20%. Here is the method:
The distribution of the various phases of the cell cycle of the protein transduced cells was analysed by FACS analysis. Distribution of the DNA content of the cell populations was detected. 2n represents a diploid DNA equivalent (non replicated; G1 phase), 4n represents the tetraploid DNA equivalent (replicated; G2/M phase). For the FACS analysis the cells were separated employing the DDM mode that allows to estimate DNA content of a single cell. U2OS cells were grown for 24 hours (upper row) or 48 hours (lower row) in the presence of increasing amounts of […] (10 nM, 50 nM, 100 nM) as indicated and with only one addition of proteins; non treated cells (control); cells treated with a nuclease impaired derivative of […] (SC34, 100 nM). All the histograms shown represent a measure of DNA content relative to the cell numbers as indicated only on the upper right panel.
U2OS cells were incubated with […] (10 nM, panel B), or with H2O2 (10 μM, panelC), or both ([…], 10 nM; H2O2, 10 μM; panel D), or with no agent as a control (panel A). Further treatment cells were analysed in FACS for DNA content; the percentage of the various cell cycle phases are indicated at the bottoms of the individual histograms.
Finally, to confirm that the DSB's that are produced in vivo also induce perturbations in the cell cycle, DNA content in the various phases of the cell cycle was analysed by Fluorescence Activated Cell Sorting (FACS) after transduction of the proteins of the invention. After the treatment with diverse proteins at various concentrations and during different timepoints, the cells were fixed in 70% ethanol, treated with RNAse A and stained with propidium […].
The FACS analysis was done using a FACSCalibur™ (Becton Dickinson) apparatus. The obtained data were evaluated with the CellQuest™ software program package. At least 3×10^4 single events for every sample were analysed in the DDM mode. The statistic analysis of the DNA content distribution during the cell cycle was done with the MODFIT LT™ software program package. A 2N diploid DNA content correspond to cells in the G1 phase of the cell cycle, 4N represents a relative tetraploid DNA content and corresponds to G2 and/or M phase of the cell cycle. An intermediate DNA content represents S phase corresponding to a population actively replicating DNA during the cell cycle and a content that is below diploid 2N represents cells in apoptosis.
U2OS cells were incubated with 10 nM […] and with 10 μM H2O2 alone or in combination ant the cell cycle profile was analysed by FACS.
On the technique in general: In flow cytometry, cells or beads pass a laser one at a time.

For the next assay, the system named is XR-1 (XRCC4−/−) cells. The settings on record: single addition of SCPVUTAT
As for the experimental part:
Clonogenic assay of CHO cells that were mutated for proteins involved in the NHEJ repair-pathway treated with […]. The cell lines used are AA8 (parental line), V3 (DNA-PCCS^(−/−)), xrss5 (KU80^(−/−)) and XR-1 (XRCC4^(−/−)), HIS P1.13-11 (KU70^(−/−)) and the corresponding parental cell line CHO-K1. Various dilutions of the CHO cells containing the NHEJ mutations as indicated were treated for 24 hours with […] (25 nM, grey bars; 100 nM, black bars) or not treated (white bars); the cells were washed and then grown for 7-10 days, stained with GIEMSA and colonies were counted.
These cell lines were analysed in the nuclease activity assays with […] in vivo and compared to the parental cell lines as indicated. […] Seven to ten days after addition, cell growth was analysed by staining with GIEMSA-blue and quantification of diverse cell-concentrations. […] In analogy, cell growth was quantified after a single treatment with […] for 12 hours (10 nM, grey bars; 75 nM, black bars; not treated, white bars). […] The multiwell-microtiter-plates (for an example see FIG. 13A) were scanned using the VersaDOC® (BioRad) imaging system and growth was automatically quantified with the software package Quantify One® for the analysis of the microtiter-plates (microtiter-plates scanning software).

For another assay, the system named is HCT116 (p53(+/+)) cells. Description: Cell cycle arrest point: nuclear morphology and immunofluorescence of cyclin B1 and Cdc25C. It counts as cell-based, human. As for the experimental part:
Microscopic analysis of the HCT116 (p53(+/+)) cells not treated, or treated with […] (100 nM) for 30 hours, or with taxol (0.2 μg/ml). Immunofluorescence analysis was done with primary antibodies specific for cyclin B1 or specific for Cdc25C and coloured with secondary conjugates of FITC (green, cyclinB1) or TRITC (red, Cdc25C).
Moreover, the initiation of mitosis, i.e. induced with the microtuble blocking agents Nocodazol or Taxol, can be detected by the nuclear activity of the Cdc2 kinase and also by nuclear localisation of Cdc25C. These assays allow to dissect the exact point of cell cycle arrest after […] treatment and this further allows to detect disturbations in this phase of the cell cycle relative to a positive control. Similar experiments are well known in the art also for other phases of the cell cycle. The assay shown in FIG. 7A and the immunofluorescence analysis shown in FIG. 14 show examples for these types of experiments.
HCT116 (p53(+/+)) not treated, or treated for 30 hours with […] (100 nM), or with Taxol (0.2 μg/ml) were fixated with 3% PFA and treated with specific antibodies to cyclin B1 or for Cdc25C. The immunofluorescence was analysed with the microscope (see FIG. 14) with specific primary antibodies to cyclin B1 conjugated to FITC labelled secondary antibodies (green) or with specific primary antibodies to Cdc25C conjugated to TRITC labelled secondary antibodies (red).

In assay [2] the test system is DSBs in human or rodent cell lines (U2OS, HEK-293, MCF-7, HCT116, WI83, IMR90, MEF). Description: TUNEL assay for DSB induction in vivo. The format is cell-based. As for the experimental part: […] was assayed with terminal deoxynucleotidyl transferase (TdT) dUTP-FITC, in a TUNEL reaction (In Situ Cell Death Detection Kit, Roche Diagnostic, Mannheim Germany) which marks DSBs in vivo. The assay was done after fixation of the cells in 4% paraformaldehyde in PBS, 0.1% Triton. After the TUNEL reaction the cells are counter-stained with propidium J. The use of derivatives impaired in the nuclease activity like the construct SC34 as a negative control, allows to estimate background activities. […] This aspect makes the system described in the invention by far more efficient as compared to endonucleases induced from transcriptional units or compared to any of the other type of protein transfection like electroporation, or precipitations with calcium phosphate or libid-derivatives i.e. lipofectin.

B1: SCPVUTAT: single chain PvuII endonuclease (aa 1-157, GSGG linker, aa 2-157) fused to HIV Tat peptide and six histidine tag; SEQ ID NO:2 (protein, listed as Proteus vulgaris)
chain: MSHPDLNKLLELWPHIQEYQDLALKHGINDIFQDNGGKLLQVLLITGLTVLPGREGNDAVDNAGQEYELKSINIDLTKGFSTHHHMNPVIIAKYRQVPWIFAIYRGIAIEAIYRLEPKDLEFYYDKWERKWYSDGHKDINNPKIPVKYVMEHGTKIYGSGGSHPDLNKLLELWPHIQEYQDLALKHGINDIFQDNGGKLLQVLLITGLTVLPGREGNDAVDNAGQEYELKSINIDLTKGFSTHHHMNPVIIAKYRQVPWIFAIYRGIAIEAIYRLEPKDLEFYYDKWERKWYSDGHKDINNPKIPVKYVMEHGTKIYGSYGRKKRRQRRRGGSHHHHHH
As for B1, the entries for the “sensitivity in clonogenic assay” value (in assay [1]; in the assay with XR-1 (XRCC4−/−) cells) were “do not show any increase in sensibility” and “hypersensitive to blunt end DSB's”, respectively. In addition, the “cells in G2 phase” value is 28% with U2OS cells (10 nM SCPVUTAT alone) and 45% with U2OS cells (10 nM SCPVUTAT in combination with 10 μM H2O2). Further, the “change of cell cycle distribution (DNA content)” value in the assay on U2OS cells (10 nM, incubation for 24 hours) was “increase in the teraploid population”. Further, the “cell cycle stop from localisation of Cdc25C and cyclin B” value in the assay with HCT116 (p53(+/+)) cells (30 hours, SCPVUTAT 100 nM or Taxol 0.2 μg/ml) is given as “G2 phase stop”. Besides, the cell cycle block entry in the assay on HCT116 (p53(+/+)) cells (upon treatment with SCPVUTAT (100 nM)) was “reversible block in the phase of the cell cycle that corresponds to late S/G2”. The TUNEL positive cells in assay [2] (10 minutes after treatment, all cell types tested) is 90-100%. In assay [2] (few minutes of treatment, concentration in culture supernatant as low as 10 nM), the TUNEL activity result is “significant TUNEL activity in most of the cells”.

These data come from US20150018409A1, “CHIMERIC POLYPEPTIDES AND THEIR USE” (ADRIACELL S.P.A., priority 2003, published 2015).
